The source of these data is patent EP2970447B1 (Eli Lilly and Company, dated 2018).

Holding throughout (experiment): SPR (Biacore 2000), antibody captured on Protein A, chemokine in solution, 25°C
On the technique in general: SPR reads the build-up and loss of mass on a sensor chip optically.

The target in one test is T1, human Gro-gamma (CXCL3) (human, UniProt P19876 35-107).
T1 construct: also called human CXCL3 (Gro gamma)
T1 sequence: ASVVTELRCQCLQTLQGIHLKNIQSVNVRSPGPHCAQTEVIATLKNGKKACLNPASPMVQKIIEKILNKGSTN

The target in another test is T2, human GCP-2 (CXCL6) (human, UniProt P80162 40-114).
T2 construct: also called human CXCL6 (GCP-2)
T2 sequence: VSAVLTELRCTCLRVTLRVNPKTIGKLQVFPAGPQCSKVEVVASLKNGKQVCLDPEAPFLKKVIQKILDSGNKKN

Another test has as its target T3, human Gro-alpha (CXCL1) (human, UniProt P09341 35-107).
T3 construct: also called human CXCL1(Gro alpha)
T3 sequence: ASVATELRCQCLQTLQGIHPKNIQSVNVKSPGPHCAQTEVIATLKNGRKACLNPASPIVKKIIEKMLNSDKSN

The next test has as its target T4, human ENA-78 (CXCL5) (human, UniProt P42830 41-114).
T4 construct: also called human CXCL5 (ENA-78)
T4 sequence: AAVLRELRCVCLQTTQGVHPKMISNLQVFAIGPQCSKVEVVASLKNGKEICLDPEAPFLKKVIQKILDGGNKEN

For another test, the target named is T5, human NAP-2 (CXCL7) (human, UniProt P02775 59-128).
T5 construct: also called human CXCL7 (NAP-2)
T5 sequence: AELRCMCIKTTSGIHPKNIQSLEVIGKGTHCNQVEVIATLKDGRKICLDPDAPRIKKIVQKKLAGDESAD

A further test has as its target T6, human IL-8 (CXCL8) (human, UniProt P10145 28-99).
T6 construct: also called human CXCL8 (IL-8); wild type human CXCL8
T6 sequence: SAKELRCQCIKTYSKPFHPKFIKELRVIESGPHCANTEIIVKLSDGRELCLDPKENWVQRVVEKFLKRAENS

B1: Antibody 2 (antibody, human IgG4 S228P, kappa, V domains shown)
VH: QVQLVQSGAEVKKPGASVKVSCKASGYEFTSYWIHWVRQAPGQGLEWMGNISPNSGSANYNEKFKSRVTMTRDTSTSTVYMELSSLRSEDTAVYYCAREGPYSYYPSRQYYGSDLWGQGTLVTVSS
VL: EIVLTQSPATLSLSPGERATLSCRASQSISNNLHWYQQKPGQAPRLLIYYTSRSVSGIPARFSGSGSGTDFTLTISSLEPEDFAVYYCGQNNEWPEVFGGGTKVEIKR
notes: Full-length antibody expressed in NS0 cells
Turning to B1, the koff with human Gro-gamma (CXCL3) was determined as 1.76e-05 s⁻¹; with human GCP-2 (CXCL6), 6.11e-05 s⁻¹; in the test with human Gro-alpha (CXCL1), 1.53e-05 s⁻¹; with human ENA-78 (CXCL5), 1.51e-05 s⁻¹; with human NAP-2 (CXCL7), 2.18e-05 s⁻¹; with human IL-8 (CXCL8) it was 1.24e-05 s⁻¹.

In general, koff refers to the rate constant with which the complex falls apart. A low value points to a long-lived complex.
